Legend:
[1] = biological target: native CD16A on human peripheral blood NK cells (human) (UniProt P08637); test: cell-based or functional assay
[2] = biological target: human CD16A-Fc^48R/158V fusion protein (human) (UniProt P08637); test: SPR, BIAcore 2000, CD16A-Fc immobilized on CM5, koff/kon
[3] = biological target: human CD16A-Fc^48R/158F fusion protein (human) (UniProt P08637); test: SPR, BIAcore 2000, antigen immobilized, koff/kon
[4] = biological target: human CD16A-Fc^48R/158V fusion protein (human) (UniProt P08637); test: SPR, BIAcore 2000, antigen immobilized, koff/kon
CD16B-Fc^NA2 (human) [5] = biological target: CD16B-Fc^NA2 (human) (UniProt O75015); test: SPR, BIAcore 2000, antigen immobilized, koff/kon
Sequence of CD16B-Fc^NA2 (human) (O75015 17-200 N65S): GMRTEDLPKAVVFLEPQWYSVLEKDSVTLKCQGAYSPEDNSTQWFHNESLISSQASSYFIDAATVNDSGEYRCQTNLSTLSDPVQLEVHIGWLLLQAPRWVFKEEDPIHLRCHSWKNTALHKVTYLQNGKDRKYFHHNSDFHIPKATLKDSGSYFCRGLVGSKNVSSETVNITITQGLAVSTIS

CD16B-Fc^SH (human) [6] = biological target: CD16B-Fc^SH (human) (UniProt O75015); test: SPR, BIAcore 2000, antigen immobilized, koff/kon
Sequence of CD16B-Fc^SH (human) (O75015 17-200 N65S/A78D): as the sequence (O75015 17-200 N65S) above, with A62D counted along it

CD16B-Fc^NA1 (human) [7] = biological target: CD16B-Fc^NA1 (human) (UniProt O75015); test: SPR, BIAcore 2000, antigen immobilized, koff/kon
Sequence of CD16B-Fc^NA1 (human) (O75015 other isoform, or with tags, fused parts or gaps): as the sequence (O75015 17-200 N65S) above, with S20R, S49N, N66D, I90V counted along it

[8] = biological target: human CD16A-Fc^48R/158V fusion protein (human) (UniProt P08637); test: SPR, BIAcore 2000, CD16A-Fc immobilized on CM5, 1:1 Langmuir
[9] = biological target: human CD16A-Fc^48R/158F fusion protein (human) (UniProt P08637); test: SPR, BIAcore 2000, antigen immobilized
[10] = biological target: human CD16A-Fc^48R/158V fusion protein (human) (UniProt P08637); test: SPR, BIAcore 2000, antigen immobilized
CD16B-Fc^NA2 (human) [11] = biological target: CD16B-Fc^NA2 (human) (UniProt O75015); test: SPR, BIAcore 2000, antigen immobilized
CD16B-Fc^SH (human) [12] = biological target: CD16B-Fc^SH (human) (UniProt O75015); test: SPR, BIAcore 2000, antigen immobilized
CD16B-Fc^NA1 (human) [13] = biological target: CD16B-Fc^NA1 (human) (UniProt O75015); test: SPR, BIAcore 2000, antigen immobilized

Sequence of human CD16A-Fc^48R/158F fusion protein (human) (P08637 17-208): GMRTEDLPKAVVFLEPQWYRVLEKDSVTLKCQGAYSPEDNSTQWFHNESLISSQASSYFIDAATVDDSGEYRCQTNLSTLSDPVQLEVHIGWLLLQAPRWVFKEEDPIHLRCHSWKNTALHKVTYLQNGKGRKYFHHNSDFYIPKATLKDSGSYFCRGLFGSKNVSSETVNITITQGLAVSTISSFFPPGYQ
Sequence of human CD16A-Fc^48R/158V fusion protein (human) (P08637 17-208 L66R/F176V limits assumed): as the sequence (P08637 17-208) above, with L50R, F160V counted along it
Sequence of native CD16A on human peripheral blood NK cells (human) (P08637 17-254): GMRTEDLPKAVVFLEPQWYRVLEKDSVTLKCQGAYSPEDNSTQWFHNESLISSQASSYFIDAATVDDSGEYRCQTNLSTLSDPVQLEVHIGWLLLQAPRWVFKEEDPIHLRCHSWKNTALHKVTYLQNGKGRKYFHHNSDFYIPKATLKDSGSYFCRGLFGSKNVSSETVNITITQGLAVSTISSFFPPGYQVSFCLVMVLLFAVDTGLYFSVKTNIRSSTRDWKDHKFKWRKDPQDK

lysis of P815 targets by NK cells (calcein release), 1 µg/mL antibody [1]: 65% | Kd [2]: 1.75 nM | Kd [3]: 3.82 nM | Kd [4]: 5.17 nM | Kd (CD16B-Fc^NA2 (human) [5]): 9.63 nM | Kd (CD16B-Fc^SH (human) [6]): 11.4 nM | Kd (CD16B-Fc^NA1 (human) [7]): 8.91 nM | koff [8]: 0.000177 s⁻¹ | kon [8]: 101000 M⁻¹ s⁻¹ | koff [9]: 0.00038 s⁻¹ | kon [9]: 99400 M⁻¹ s⁻¹ | koff [10]: 0.000406 s⁻¹ | kon [10]: 78600 M⁻¹ s⁻¹ | koff (CD16B-Fc^NA2 (human) [11]): 0.000478 s⁻¹ | kon (CD16B-Fc^NA2 (human) [11]): 75700 M⁻¹ s⁻¹ | koff (CD16B-Fc^SH (human) [12]): 0.000528 s⁻¹ | kon (CD16B-Fc^SH (human) [12]): 77900 M⁻¹ s⁻¹ | koff (CD16B-Fc^NA1 (human) [13]): 0.000487 s⁻¹ | kon (CD16B-Fc^NA1 (human) [13]): 77200 M⁻¹ s⁻¹
Substance: anti-CD16 murine monoclonal antibody A9
